For data set [1], the system named is HER2 expression in BT-474 human breast cancer cells. The experiment in a line: In-Cell Western assay (ICW) for HER2 expression in BT-474 cells. Type of data set: cell-based. As to the method: The HDCs as described herein were used in various experiments to determine their activity and properties, such as binding affinity and stability in blood. An in-Cell Western assay (ICW) for HER2 expression was carried out in BT-474 human breast cancer cells. BT-474 cells were seeded in 96-well plates at a density of 20,000 cells per well. Twenty-four hours after plating, cells were dosed with graded concentrations of HDCs using 3-fold serial dilutions and incubated for 24 h. Growth media containing drug was aspirated off. Cells were then fixed in 4% paraformaldehyde for 20 min and washed three times in 0.1% Triton X-100. After blocking for 1.5 h in Odyssey Blocking Buffer (LI-COR, Lincoln, Nebr., USA), cells were incubated with primary HER2 antibody overnight at 4° C. Wells were washed three times with 0.1% Tween-20 and incubated in secondary antibody (LI-COR, Lincoln, Nebr., USA) and DRAQ5 (CST, Beverly, Mass., USA) for 1 h. Following 3 final washes with 0.1% Tween-20, antibody-antigen complexes were visualized using the Odyssey system. For quantification, HER2 signal was normalized to DRAQ5 flourescent probe.

A short description of data set [2]: Metabolic stability in mouse whole blood (LC-MS/MS). Type of data set: in vitro ADME. The conditions noted are these: for Mouse blood stability 1 h (% remaining): 10 μM. As to the method: Metabolic stability of various HDCs was tested in mouse blood. All compounds were tested at a concentration of 10 μM. The time dependent disappearance of test compound in mouse whole blood, and the release of the compound qualitatively as determined by liquid chromatography tandem mass spectrometry (LC-MS/MS), was tested at time points of 15 minutes, 30 minutes, 45 minutes and 1 hour. All compounds were tested in duplicate, and the average was taken. The results in Table 2 show the percent of test compound remaining after 1 hour.

The mark [3] stands for this setting: BT-474 cells, 24 h incubation, 3-fold serial dilutions, HER2 signal normalized to DRAQ5, read-out: HER2 (ICW).
The mark [4] stands for this setting: mouse whole blood, percent of test compound remaining after 1 hour, average of duplicate.

Here are results for 13 molecules from US20190060473A1, “HSP90 INHIBITOR DRUG CONJUGATES” (priority 2016, published 2019).

Like-named read-outs stand apart in the source and are kept apart here.

Take `CCNC(=O)c1nnc(-c2cc(C(C)C)c(O)cc2O)n1-c1ccc(CN2CCC(C(=O)NC3(C(=O)OC[C@@H](NC(=O)c4cc(-c5cc(NC(C)C)ncc5Cl)c[nH]4)c4cccc(Cl)c4)CC3)CC2)c(F)c1` [SDC-TRAP-0507, (S)-2-(4-(5-chloro-2-(isopropylamino)pyridin-4-yl)-1H-pyrrole-2-carboxamido)-2-(3-chlorophenyl)ethyl-(1-(4-(3-(2,4-dihydroxy-5-isopropylphenyl)-5-(ethylcarbamoyl)-4H-1,2,4-triazol-4-yl)-2-fluorobenzyl)piperidine-4-carboxamido)cyclopropanecarboxylate]: in data set [1] (setting [3]), the IC50 came out at 304 nM. For the same molecule, the “Mouse blood stability 1 h (% remaining)” value in data set [2] (setting [4]) turned out to be 105%. For `CC(C)Nc1cc(-c2c[nH]c(C(=O)N[C@H](COC(=O)C3(NC(=O)CCn4ccc5cc(-n6c(O)nnc6-c6cc(C(C)C)c(O)cc6O)ccc54)CC3)c3cccc(Cl)c3)c2)c(Cl)cn1` [SDC-TRAP-0508, (S)-2-(4-(5-chloro-2-(isopropylamino)pyridin-4-yl)-1H-pyrrole-2-carboxamido)-2-(3-chlorophenyl)ethyl 1-(3-(5-(3-(2,4-dihydroxy-5-isopropylphenyl)-5-hydroxy-4H-1,2,4-triazol-4-yl)-1H-indol-1-yl)propanamido)cyclopropanecarboxylate], the IC50 in data set [1] (setting [3]) came to 2330 nM. Moreover, in data set [2] (mouse, blood, 1 h), the “Mouse blood stability 1 h (% remaining)” value stood at 32.4%. As to `CC(C)Nc1cc(-c2c[nH]c(C(=O)N[C@H](COC(=O)C3(NC(=O)C4CCN(Cc5ccc(-n6c(O)nnc6-c6cc(C(C)C)c(O)cc6O)cc5F)CC4)CC3)c3cccc(Cl)c3)c2)c(Cl)cn1` [SDC-TRAP-0509, (S)-2-(4-(5-chloro-2-(isopropylamino)pyridin-4-yl)-1H-pyrrole-2-carboxamido)-2-(3-chlorophenyl)ethyl 1-(1-(4-(3-(2,4-dihydroxy-5-isopropylphenyl)-5-hydroxy-4H-1,2,4-triazol-4-yl)-2-fluorobenzyl)piperidine-4-carboxamido)cyclopropanecarboxylate], the IC50 in data set [1] (setting [3]) was 2690 nM. Further, in data set [2] (setting [4]), the “Mouse blood stability 1 h (% remaining)” value is listed as 86.9%. The like results for `CCNC(=O)c1nnc(-c2cc(C(C)C)c(O)cc2O)n1-c1ccc(CN2CCC(C(=O)N3CCC(CC(=O)OC[C@@H](NC(=O)c4cc(-c5cc(NC(C)C)ncc5Cl)c[nH]4)c4cccc(Cl)c4)CC3)CC2)c(F)c1` [SDC-TRAP-0512, (S)-2-(4-(5-chloro-2-(isopropylamino)pyridin-4-yl)-1H-pyrrole-2-carboxamido)-2-(3-chlorophenyl)ethyl 2-(1-(1-(4-(3-(2,4-dihydroxy-5-isopropylphenyl)-5-(ethylcarbamoyl)-4H-1,2,4-triazol-4-yl)-2-fluorobenzyl)piperidine-4-carbonyl)piperidin-4-yl)acetate] were, in that order, 60 nM and 100%. As for `CC(C)Nc1cc(-c2c[nH]c(C(=O)N[C@H](COC(=O)C3CCN(Cc4ccc(-n5c(O)nnc5-c5cc(C(C)C)c(O)cc5O)cc4F)CC3)c3cccc(Cl)c3)c2)c(Cl)cn1` [SDC-TRAP-0517, (S)-2-(4-(5-chloro-2-(isopropylamino)pyridin-4-yl)-1H-pyrrole-2-carboxamido)-2-(3-chlorophenyl)ethyl 1-(4-(3-(2,4-dihydroxy-5-isopropylphenyl)-5-hydroxy-4H-1,2,4-triazol-4-yl)-2-fluorobenzyl)piperidine-4-carboxylate], the IC50 in data set [1] (setting [3]) was 202 nM.

For `CCNC(=O)c1nnc(-c2cc(C(C)C)c(O)cc2O)n1-c1ccc(CN2CCC(C(=O)OC[C@@H](NC(=O)c3cc(-c4cc(NC(C)C)ncc4Cl)c[nH]3)c3cccc(Cl)c3)CC2)c(F)c1` [SDC-TRAP-0518, (S)-2-(4-(5-chloro-2-(isopropylamino)pyridin-4-yl)-1H-pyrrole-2-carboxamido)-2-(3-chlorophenyl)ethyl 1-(4-(3-(2,4-dihydroxy-5-isopropylphenyl)-5-(ethylcarbamoyl)-4H-1,2,4-triazol-4-yl)-2-fluorobenzyl)piperidine-4-carboxylate], the IC50 in data set [1] (setting [3]) turned out to be 104 nM. Same read-out and setting: with `CC(C)Nc1cc(-c2c[nH]c(C(=O)N[C@H](COC(=O)[C@@H](C)NC(=O)C3CCN(Cc4ccc(-n5c(O)nnc5-c5cc(C(C)C)c(O)cc5O)cc4F)CC3)c3cccc(Cl)c3)c2)c(Cl)cn1` [SDC-TRAP-0519] the figure was 1650 nM. As to `CCNC(=O)c1nnc(-c2cc(C(C)C)c(O)cc2O)n1-c1ccc(N(C)C2CCN(C(=O)CCC(=O)OC[C@H](O)Cn3cnc4c(c(Nc5ccc(I)cc5F)c(F)c(=O)n4C)c3=O)CC2)nc1` [SDC-TRAP-0525, (R)-3-(6-fluoro-5-((2-fluoro-4-iodophenyl)amino)-8-methyl-4,7-dioxo-7,8-dihydropyrido[2,3-d]pyrimidin-3(4H)-yl)-2-hydroxypropyl 4-(4-((5-(3-(2,4-dihydroxy-5-isopropylphenyl)-5-(ethylcarbamoyl)-4H-1,2,4-triazol-4-yl)pyridin-2-yl)(methyl)amino)piperidin-1-yl)-4-oxobutanoate], the “Mouse blood stability 1 h (% remaining)” value in data set [2] (setting [4]) is 10.8%.

Regarding `CC(C)c1cc(-c2nnc(O)n2-c2ccc(CN3CCC(C(=O)N4CC[C@H](C(=O)OC[C@H](O)Cn5cnc6c(c(Nc7ccc(I)cc7F)c(F)c(=O)n6C)c5=O)C4)CC3)c(F)c2)c(O)cc1O` [SDC-TRAP-0528], the “Mouse blood stability 1 h (% remaining)” value in data set [2] (setting [4]) is 0%. Take `CCNC(=O)c1nnc(-c2cc(C(C)C)c(O)cc2O)n1-c1ccc(C(=O)N[C@H](C(=O)N[C@@H](CC(C)C)C(=O)N(C)[C@@H](C(=O)N[C@H](C(=O)N(C)C([C@@H](C)CC)[C@@H](CC(=O)N2CCC[C@@H]2[C@@H](OC)[C@@H](C)C(=O)N[C@@H](C)[C@H](O)c2ccccc2)OC)C(C)C)C(C)C)C(C)C)cc1` (stereo partly drawn) [SDC-TRAP-0538, 4-(4-(((3R,7S,10R,13S,16S)-4-((S)-sec-butyl)-3-(2-((R)-2-((1S,2R)-3-(((1R,2S)-1-hydroxy-1-phenylpropan-2-yl)amino)-1-methoxy-2-methyl-3-oxopropyl)pyrrolidin-1-yl)-2-oxoethyl)-13-isobutyl-7,10-diisopropyl-5,11,17-trimethyl-6,9,12,15-tetraoxo-2-oxa-5,8,11,14-tetraazaoctadecan-16-yl)carbamoyl)phenyl)-5-(2,4-dihydroxy-5-isopropylphenyl)-N-ethyl-4H-1,2,4-triazole-3-carboxamide]: in data set [2] (setting [4]), the amount remaining at 1 h, 10 μM came out at 118%. On the same count and under the same terms, with `CCNC(=O)c1nnc(-c2cc(C(C)C)c(O)cc2O)n1-c1ccc(C(=O)N[C@@H](CC(C)C)C(=O)N[C@@H](CC(C)C)C(=O)N(C)[C@@H](C(=O)N[C@H](C(=O)N(C)C([C@@H](C)CC)[C@@H](CC(=O)N2CCC[C@@H]2[C@@H](OC)[C@@H](C)C(=O)N[C@@H](C)[C@H](O)c2ccccc2)OC)C(C)C)C(C)C)cc1` (stereo partly drawn) [SDC-TRAP-0539, 4-(4-(((3R,7S,10R,13S,16S)-4-((S)-sec-butyl)-3-(2-((R)-2-((1S,2R)-3-(((1R,2S)-1-hydroxy-1-phenylpropan-2-yl)amino)-1-methoxy-2-methyl-3-oxopropyl)pyrrolidin-1-yl)-2-oxoethyl)-13-isobutyl-7,10-diisopropyl-5,11,18-trimethyl-6,9,12,15-tetraoxo-2-oxa-5,8,11,14-tetraazanonadecan-16-yl)carbamoyl)phenyl)-5-(2,4-dihydroxy-5-isopropylphenyl)-N-ethyl-4H-1,2,4-triazole-3-carboxamide] the figure was 106%; with `CCNC(=O)c1nnc(-c2cc(C(C)C)c(O)cc2O)n1-c1ccc(C(=O)N[C@H](C(=O)N[C@@H](CCCNC(N)=O)C(=O)N(C)[C@@H](C(=O)N[C@H](C(=O)N(C)C([C@@H](C)CC)[C@@H](CC(=O)N2CCC[C@@H]2[C@@H](OC)[C@@H](C)C(=O)N[C@@H](C)[C@H](O)c2ccccc2)OC)C(C)C)C(C)C)C(C)C)cc1` (stereo partly drawn) [SDC-TRAP-0540, 4-(4-(((3R,7S,10R,13S,16S)-4-((S)-sec-butyl)-3-(2-((R)-2-((1S,2R)-3-(((1R,2S)-1-hydroxy-1-phenylpropan-2-yl)amino)-1-methoxy-2-methyl-3-oxopropyl)pyrrolidin-1-yl)-2-oxoethyl)-7,10-diisopropyl-5,11,17-trimethyl-6,9,12,15-tetraoxo-13-(3-ureidopropyl)-2-oxa-5,8,11,14-tetraazaoctadecan-16-yl)carbamoyl)phenyl)-5-(2,4-dihydroxy-5-isopropylphenyl)-N-ethyl-4H-1,2,4-triazole-3-carboxamide], 55.5%. `CC(C)c1cc(-c2n[nH]c(=O)n2-c2ccc3c(ccn3C)c2)c(O)cc1O` [ganetespib, reference compound]: the IC50 in data set [1] (Homo sapiens, BT-474, 24 h, read-out: HER2 (ICW, nM)) amounted to 37 nM.
